According to patent US6207816:

Assays:
[1] = biological target: T1, KGF (hKGF) (Homo sapiens) (UniProt P21781); assay: filter; conditions: 2'-F pyrimidines
T1 sequence: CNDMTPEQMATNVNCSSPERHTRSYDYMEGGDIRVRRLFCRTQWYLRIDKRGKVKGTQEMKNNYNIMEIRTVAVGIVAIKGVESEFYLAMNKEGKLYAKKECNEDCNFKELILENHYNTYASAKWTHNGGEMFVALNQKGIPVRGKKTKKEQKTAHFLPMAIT

[2] = biological target: T1, KGF (hKGF) (Homo sapiens); assay: competition; conditions: 2'-F pyrimidines; for IC50: PC-3 assay

Sequence: GGGAGGACGAUGCGGCAANNNNNNNCUCUCUCCUGGCGUUCCGCAACCCGCCCCCAGACGACUCGCCCGA [19F]
- Kd ([1]; second column 0.94-2.57): 1.5 nM

Sequence: GGGAGGACGAUGCGGGAAUUAACAGGGCCAGAAUUCUCAUCUNNCUUCCCGUGACCCAGACGACUCGCCCGA [12F]
- Kd ([1]; DPBS, 37 C): 1.38 nM

Sequence: GGGAGGACGAUGCGGGAAUUCCCAGCGCUUGACUGAUACAAACNUUCCCGUGCCGCAGACGACUCGCCCGA [16F]
- Kd ([1]; biphasic, high affinity 49%, Kd2 3.39 nM): 0.83 nM

Sequence: GGGAGGACGAUGCGGGGACAAWYAGCGGUGUCUUUUCAUUUNKAUCCUCCGACRUCCCAGACGACUCGCCCGA [56F (K56F)]
- IC50 [2]: 1 nM

Sequence: GGGAGGACGAUGCGGGGACAAWYAGCGGUGUCUUUUCAUUUNKAUCCUCCGACRUCCCAGACGACUCGCCCGA [56F]
- Kd ([1]; biphasic, 32% high affinity, Kd2 3.00 nM): 0.07 nM

Sequence: GGGAGGACGAUGCGGNGACUGAUUUUUCCUUGNBCAGUGUAAUUUCCUGGCUGCCCCAGACGACUCGCCCGA [38F (K38F)]
- IC50 [2]: 0.6 nM
- Ki ([2]; PC-3 cells, 20 nM on NIH3T3/FGFR-2): 0.22 nM

Sequence: GGGAGGACGAUGCGGNGACUGAUUUUUCCUUGNBCAGUGUAAUUUCCUGGCUGCCCCAGACGACUCGCCCGA [38F]
- Kd ([1]; DPBS, 37 C): 0.33 nM
